Test results from paper PMC9127447.

Target: His-tagged dynamin 2b (dynamin 2-WT, baculovirus) (rat)
Assay: not stated; polymerization of recombinant (baculovirus) dynamin 2 with or without Bis-T-23; method in Supplementary Figures S2E, F

B1: His-tagged dynamin 2b (dynamin 2-WT, baculovirus) (enzyme)
chain: MGNRGMEELIPLVNKLQDAFSSIGQSCHLDLPQIAVVGGQSAGKSSVLENFVGRDFLPRGSGIVTRRPLILQLIFSKTEYAEFLHCKSKKFTDFDEVRQEIEAETDRVTGTNKGISPVPINLRVYSPHVLNLTLIDLPGITKVPVGDQPPDIEYQIKDMILQFISRESSLILAVTPANMDLANSDALKLAKEVDPQGLRTIGVITKLDLMDEGTDARDVLENKLLPLRRGYIGVVNRSQKDIEGRKDIRAALAAERKFFLSHPAYRHMADRMGTPHLQKTLNQQLTNHIRESLPTLRSKLQSQLLSLEKEVEEYKNFRPDDPTRKTKALLQMVQQFGVDFEKRIEGSGDQVDTLELSGGARINRIFHERFPFELVKMEFDEKDLRREISYAIKNIHGVRTGLFTPDMAFEAIVKKQLVKLKEPSLKCVDLVVSELATVIKKCAEKLSSYPRLREETERIVTTYIREREGRTKDQILLLIDIEQSYINTNHEDFIGFANAQQRSTQLNKKRAIPNQGEILVIRRGWLTINNISLMKGGSKEYWFVLTAESLSWYKDEEEKEKKYMLPLDNLKIRDVEKGFMSNKHVFAIFNTEQRNVYKDLRQIELACDSQEDVDSWKASFLRAGVYPEKDQAENEDGAQENTFSMDPQLERQVETIRNLVDSYVAIINKSIRDLMPKTIMHLMINNTKAFIHHELLAYLYSSADQSSLMEESAEQAQRRDDMLRMYHALKEALNIIGDISTSTVSTPVPPPVDDTWLQNTSSHSPTPQRRPVSSVHPPGRPPAVRGPTPGPPLIPMPVGATSSFSAPPIPSRPGPQNVFANNDPFSAPPQIPSRPARIPPGIPPGVPSRRAPAAPSRPTIIRPAEPSLLD
modifications: not checked
In the case of B1, the fold increase of polymerization with Bis-T-23 against without Bis-T-23 is reported as 30 times.
